B1: Hairpin Ribozyme (parent)
chain: GUCCUCUUUCACGUGCGCGUGAAAGAGAGAAGUGAACCAGAGAAACACACGUUGUGGUAUAUUACCUGGUA

Variants of: B1
Assay: self-cleavage, relative activity (ratio to wild type); higher = more cleavage; co-transcriptional

First: A44C C50G
Second: A45G U60C
The self-cleavage of the first is lower: 0 for the first, 0.0993 for the second.

First: A45G U60G
Second: A43C U58A
The self-cleavage of the first is higher: 0.187 for the first, 0.174 for the second.

Compared with A43C G56C, A43C G56U is lower in self-cleavage: 0.165 for the first, 0.141 for the second.

Going from A43C G56A to A45G C50U, the self-cleavage rises from 0.13 to 0.174.

Compared with A45G C50A, G42A U67A is higher in self-cleavage: 0.123 for the first, 0.219 for the second.

Compared with G42A U67G, A44C U62A is higher in self-cleavage: 0.125 for the first, 0.156 for the second.

Compared with G42C A43G, G42U G54U is higher in self-cleavage: 0.177 for the first, 0.191 for the second.

Going from G42U G54C to G42U G54A, the self-cleavage rises from 0.122 to 0.197.

Going from A43C A45C to G42A A64U, the self-cleavage falls from 0.153 to 0.107.

Compared with A41U U62C, A41U U62G is lower in self-cleavage: 0.711 for the first, 0.202 for the second.

Going from A45G U62C to A44C U55A, the self-cleavage falls from 0.0923 to 0.0312.

Compared with G42U G68A, G42U G68C is higher in self-cleavage: 0.129 for the first, 0.152 for the second.

Compared with A43C A71U, A43C A71C is higher in self-cleavage: 0.159 for the first, 0.26 for the second.

First: A44U A64U
Second: A44U A64C
The self-cleavage of the first is lower: 0.203 for the first, 0.216 for the second.

Compared with A43U G57U, A43U G57A is lower in self-cleavage: 0.152 for the first, 0.119 for the second.

First: A45C U62C
Second: A45U A61G
The self-cleavage of the first is lower: 0.141 for the first, 0.184 for the second.

Going from A44C U58A to G42A A47G, the self-cleavage rises from 0.0929 to 0.162.

Going from G42U A43G to G42U A43U, the self-cleavage rises from 0.102 to 0.108.

Going from G42U A43C to A45G U63G, the self-cleavage rises from 0.179 to 0.226.

Going from A45G U63C to A43G U53G, the self-cleavage rises from 0.0324 to 0.226.

Compared with A44U C66U, A44U C66A is lower in self-cleavage: 0.222 for the first, 0.151 for the second.

First: A45U C65G
Second: A43U C48A
The self-cleavage of the first is lower: 0.155 for the first, 0.206 for the second.

Compared with G42C U62G, G42C U62C is higher in self-cleavage: 0.0896 for the first, 0.221 for the second.

Going from G42C U62A to A45C G51U, the self-cleavage rises from 0.102 to 0.116.

Compared with A44C U63G, A45C A61G is lower in self-cleavage: 0.182 for the first, 0.105 for the second.

First: A43C A44G
Second: A45C C50A
The self-cleavage of the first is lower: 0.0582 for the first, 0.209 for the second.

Compared with A45C C50G, G42C G57U is lower in self-cleavage: 0.211 for the first, 0.146 for the second.

Going from A44U C48A to A44G U52C, the self-cleavage rises from 0.124 to 0.223.

First: A44G C66G
Second: A45U A64C
The self-cleavage of the first is lower: 0.15 for the first, 0.18 for the second.

Compared with G42C A59C, G42C A59U is lower in self-cleavage: 0.188 for the first, 0.156 for the second.

Compared with G42U A49G, G42C C66G is higher in self-cleavage: 0.134 for the first, 0.137 for the second.

Compared with G42C C66U, G42C C66A is lower in self-cleavage: 0.13 for the first, 0.103 for the second.

Going from G42U U58A to A45G U67A, the self-cleavage falls from 0.0966 to 0.0776.

First: G42C C48G
Second: G42C C48U
The self-cleavage of the first is lower: 0.113 for the first, 0.143 for the second.

Compared with A44C A49C, A44C C65U is higher in self-cleavage: 0.103 for the first, 0.142 for the second.

First: A44G G54C
Second: A43C U62C
The self-cleavage of the first is lower: 0.119 for the first, 0.129 for the second.

First: A43C A64U
Second: A43C C66U
The self-cleavage of the first is higher: 0.198 for the first, 0.181 for the second.

First: A45C C48A
Second: A45C C48G
The self-cleavage of the first is lower: 0.0612 for the first, 0.188 for the second.

Going from A43C G54C to A43C G54A, the self-cleavage rises from 0.163 to 0.217.

Compared with A43G A71G, A43G A71C is higher in self-cleavage: 0.165 for the first, 0.458 for the second.

Going from A43G A71U to A43C U63A, the self-cleavage falls from 0.16 to 0.126.

A44C G68A gave a self-cleavage of 0.103.
